Reference: article doi:10.1101/2020.09.10.291138

Target: human IgM-Fc (heavy chain constant domains Cμ2, Cμ3, Cμ4 and the tailpiece) (human)
Assay: cryo-EM structure

stoichiometry N: 5
Substance: human IgM-Fc (heavy chain constant domains Cμ2, Cμ3, Cμ4 and the tailpiece) (domain or fragment)
